In test [1] the target is T1, native soluble IL-6R in human plasma (human, UniProt P08887). Kind of test: ELISA 1, periplasmic extract; competitor IL-6; human plasma. The method, then:
(§1) In this ELISA, plasma was used as a source of native soluble IL-6R. By this assay, we aimed to confirm the alphascreen results and to get a view on the cross-reactivity of the clones towards cynomolgous IL-6R. Human plasma (ELISA 1 and ELISA 3) or cynomolgous plasma (ELISA 2) were pre-incubated with a dilution of the periplasmic extract of the clones together with human IL-6 (50 ng/mL). Subsequently, plasma soluble IL-6R was captured on a B-N12 coated plate and bound IL-6 was detected using anti-IL-6 antibody BAF206 and streptavidin-HRP (ELISA 1 and ELISA 2). The ELISA signal dropped when the Nanobody clone could compete with IL-6 for binding to soluble IL-6R. ELISA 3 was a parallel ELISA in which the detection antibody was replaced by anti-IL-6R antibody BAF227 to exclude false positive competitors, which actually compete with B-N12 (e.g. family 2). Depicted in Table C-5 is the ratio of the OD450 value of the test sample versus the blank OD450 (mock sample). Clones were ordered based on ELISA 1 data.

Test [2] deals with T1, native soluble IL-6R in human plasma. The experiment in a line: ELISA 3, periplasmic extract; competitor BN-12; human plasma. The method, then:
as §1
Background: An ELISA detects its analyte on a solid surface through an enzyme-linked reagent.

The target of test [3] is soluble IL-6R in cynomolgous plasma (cynomolgus monkey, UniProt A0A2K5WN54). The experiment in a line: ELISA 2, periplasmic extract; competitor IL-6; cyno plasma. The protocol:
as §1

Changes are numbered by the printed parent chain.

B1: IL6RPMP106D6 (VHH)
VHH: EVQLVESGGGLVQAGGSLRLSCAASGFTFDDYAIGWFRQAPGKEREGVSCMISSDGSTYYADSVKGRFTISSDNAKNTVYLQMDSLKPEDTAVYYCAADLSLYGCYVGDRDLYDYDYWGQGTQVTVSS
With B1, the OD450 ratio sample/blank in test [1] stood at 1.27; in test [2], 1; in test [3], 1.13.

B2: IL6RPMP104E7 (VHH)
VHH: EVQLVESGGGLVQAGGSLRLSCAAGGSIFSINAMGWYRQAPGKQRELVASITSGGSTTYADSVKGRFTISRDNAKDTVYLQMNSLKPEDTAVYYCNAHIRFPFPNDYWGQGTQVTVSS
Take B2: the OD450 ratio sample/blank was found to be 2.04 in test [1], 1.01 in test [2] and 0.993 in test [3].

B3: IL6RPMP103D7 (VHH)
VHH: EVQLVESGGGLVEAGGSLRLSCAAAGRTLSSYSMAWFRQAPGKEREFVAIIRGNPSRTYHSDSVKGRFTASRDNAKNTVYLQMNRLEPEDTAVYYCAADPPPFASDYSAPQSYDYWGQGTQVTVSS
Regarding B3, the OD450 ratio sample/blank came to 0.355 in test [1], 0.98 in test [2] and 0.0821 in test [3].

B4: IL6RPMP100D11 (VHH)
VHH: EVQLVESGGGLVQAGDSLRLSCLASGRSFKDDAMGWFRQAPGKEREFVSGIDWRGNIVDAESVKGRFTISRENAKNTLYLQMNHLKPEDTAVYYCAASSVFSDLRYRKNPKYWGQGTQVTVSS
With B4, the OD450 ratio sample/blank is 1.9 in test [1], 0.969 in test [2] and 0.962 in test [3].

B5: IL6RPMP101G1 (VHH)
VHH: EVQLVESGGGLVQPGGSLRLSCAASGGTLDYYAIGWFRQAPGKEREGVSCISSSDGSTYYASSVKGRFTVSRDKAKNTVYLQMNSLKPEDTAVYYCAFVFTTAQAMGVPNNPYEYDFWGQGTQVTVSS
As to B5, the OD450 ratio sample/blank in test [1] was found to be 0.148; in test [2], 0.639; in test [3], 0.0937.

B6: IL6RPMP101B3 (VHH)
VHH: EVQLVESGGGLVQAGGSLRLSCAASGSIFRINAMGWYRQAPGKQRELVAAAISGGSTNYADFVKGRFTISRDNAKNTVYLQMNSLKPEDTAVYYCNALVVSHNYSDYVPFPDDYWGQGTQVTVSS
For the molecule B6, the OD450 ratio sample/blank was 0.402 in test [1], 0.972 in test [2] and 1.05 in test [3].

B7: IL6RPMP106F4 (VHH)
VHH: B6 VHH with E88G
For B7, the OD450 ratio sample/blank in test [1] was 0.557; in test [2], 1.01; in test [3], 1.19.

B8: IL6RPMP105D3 (VHH)
VHH: B6 VHH with V5E
In the case of B8, the OD450 ratio sample/blank in test [1] came out at 0.457; in test [2], 1.01; in test [3], 0.995.

B9: IL6RPMP102G3 (VHH)
VHH: EVQLVESGGGLVQAGGSLRLSCAASGSIDRINAMGWYRQAPGKQRDFLAVITDGDKTLYADSVKGRFTISNDNAKNTVYLQMNSLKPEDTAVYYCNAYQAGWGDYWGQGTQVTVSS
In the case of B9, the figures for the OD450 ratio sample/blank in test [1], in test [2] and in test [3] were 1.76, 0.968 and 1.32, respectively.

B10: IL6RPMP107G10 (VHH)
VHH: B9 VHH with D29E, R30N, V50I, D55S
For the molecule B10, the OD450 ratio sample/blank in test [1] amounted to 0.523; in test [2], 1.01; in test [3], 0.883.

B11: IL6RPMP120F4 (VHH)
VHH: EVQLVESGGGLVQTGGSLRLSCAVSGRTDSTASVGWFRQAPGKQREWVVGISSGGSTHYADSVKGRFISSQDDAKNTVYLQMNSLKPEDTAIYYCAIAHGSSTYNYWGQGTQVTVSS
On to B11, for which the results for the OD450 ratio sample/blank in test [1], in test [2] and in test [3] were 0.498, 0.923 and 0.0331, respectively.

B12: IL6RPMP104A8 (VHH)
VHH: EVQLVESGGGLVQAGGSLRLSCTASGRTFSDYDMGWFRQAPGKEREFVAVIDTNGGHTLTVGSVKGRFAISSDNAKNTVYLQMNSLVPEDTAVYTCAAGAWSSLRKTAASYWGQGTQVTVSS
Turning to B12, the OD450 ratio sample/blank in test [1] is 2.04; in test [2] it was 0.973; in test [3], 0.725.

B13: IL6RPMP104B9 (VHH)
VHH: B12 VHH with F47C, V50I, G56D, H57N, T60I, V87L, A100V, K106H, S110N
With B13, the OD450 ratio sample/blank in test [1] amounted to 2.06; in test [2] it was 1; in test [3], 0.766.

B14: IL6RPMP101F6 (VHH)
VHH: EVQLVESGGGLVQAGGSLRLSCAASGSIFSIKAMGWYRQAPGKQRELVARITSGGSTYYADSVKGRFTISRDNAKNTVYLQMNSLKPEDTAVFYCNAIVTDSDYDLGNDYWGQGTQVTVSS
B14: the OD450 ratio sample/blank turned out to be 0.0703 in test [1], 0.947 in test [2] and 0.0273 in test [3].

B15: IL6RPMP103A5 (VHH)
VHH: EVQLVESGGGLVQAGDSLRLSCVASGLPFSTLHMGWFRQAPGKEHESVSAISSDGGSEYYAGSVKGRFTISRDNAKNTVYLQMNSLKPEDTAVYYCAADPRRIGANIKYSDYWGQGTQVTVSS
B15: the results for the OD450 ratio sample/blank in test [1], in test [2] and in test [3] were 2.12, 0.943 and 0.859, respectively.

B16: IL6RPMP103B2 (VHH)
VHH: EVQLVESGGGLVQPGGSLRLSCAASGSTFSINMMAWYCQAPGKQRELVASISSGGGINYADSVKGRFTISRDYAENSVDLQMNSLKPEDTAVYYCNARGTYLNGDHYSTNYNSWGQGTQVTVSS
As for B16, the OD450 ratio sample/blank in test [1] stood at 1.76; in test [2], 1.02; in test [3], 0.81.

B17: IL6RPMP107B4 (VHH)
VHH: EVQLVESGGGLVQAGGSLRLSCVASGLRLNMHRMGWFRQAPGKEREFVARIFTDDGDSYYADSVQGRFTISGDNAKNTVYLQMNSLKPEDTGVYFCAAGYMSGAESPIGYDNWGQGTQVTVSS
On to B17, for which the OD450 ratio sample/blank in test [1] was found to be 1.2; in test [2], 1.04; in test [3] it was 0.918.

B18: IL6RPMP107C3 (VHH)
VHH: EVQLVESGGGLVQAGGSLNLSCNASGDIGSINAMGWHRQAPGQQREWVAVITDTDSTIYPDSVKGRFAISRDGAKNTVHLRMSSLKPEDTAVYYCNAYQAGWGDYWGQGTQVTVSS
For B18, the figures for the OD450 ratio sample/blank in test [1], in test [2] and in test [3] were 0.438, 1.06 and 0.904, respectively.

B19: IL6RPMP101G11 (VHH)
VHH: EVQLVESGGGLVQPGGSLRLSCAASASGFTLDYYAIGWFRQAPGKEREGVSCISSTDGSTYYADSVKGRFTISRDNAKNTVYLQMNSLNPEDTGVYTCAAVLTTAQAMGVPTRSYEYDYWGQGTQVTVSS
On to B19, for which the values for the OD450 ratio sample/blank in test [1], in test [2] and in test [3] were 0.227, 0.468 and 0.0538, respectively.

B20: IL6RPMP103A2 (VHH)
VHH: EVQLVESGGGLVQPGGSLRLSCAASGSIFSINTMGWYRQVPGKQRELVATVRSGSITNYADSVQDQFTITRDIDENTVYLQMNSLKPEDTAVYYCLTRASVPGRGYQDYWGQGTQVTVSS
For B20, the values for the OD450 ratio sample/blank in test [1], in test [2] and in test [3] were 2.04, 0.993 and 1.09, respectively.

B21: IL6RPMP104E4 (VHH)
VHH: EVQLVESGGGTVQAGGSLKLSCAASGRTFTNYAMGWFRQAPGKEREFVAAIAYATHFADSVKGRFTISRGNAKNTVYLQMNSLKPEDTAVYYCAADLSLSKMVSKITSDMDYWGKGTLVTVSS
With B21, the OD450 ratio sample/blank in test [1] worked out at 1.34; in test [2] it was 1.03; in test [3], 0.838.

B22: IL6RPMP101A1 (VHH)
VHH: B21 VHH
Take B22: the OD450 ratio sample/blank in test [1] turned out to be 0.508; in test [2], 0.989; in test [3] it was 0.521.
